Values quoted from earlier work as cited in article PMC12692374.

Target: HIV-1 capsid (Human immunodeficiency virus 1) (UniProt O93182)
Sequence (O93182 133-363): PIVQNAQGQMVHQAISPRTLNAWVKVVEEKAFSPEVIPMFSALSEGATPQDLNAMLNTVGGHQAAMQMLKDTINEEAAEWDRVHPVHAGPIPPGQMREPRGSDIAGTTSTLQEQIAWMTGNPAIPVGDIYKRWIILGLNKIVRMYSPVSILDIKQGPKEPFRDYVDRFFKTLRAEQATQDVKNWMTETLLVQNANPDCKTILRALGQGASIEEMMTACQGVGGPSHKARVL

Chain of NONO (Q15233 whole entry): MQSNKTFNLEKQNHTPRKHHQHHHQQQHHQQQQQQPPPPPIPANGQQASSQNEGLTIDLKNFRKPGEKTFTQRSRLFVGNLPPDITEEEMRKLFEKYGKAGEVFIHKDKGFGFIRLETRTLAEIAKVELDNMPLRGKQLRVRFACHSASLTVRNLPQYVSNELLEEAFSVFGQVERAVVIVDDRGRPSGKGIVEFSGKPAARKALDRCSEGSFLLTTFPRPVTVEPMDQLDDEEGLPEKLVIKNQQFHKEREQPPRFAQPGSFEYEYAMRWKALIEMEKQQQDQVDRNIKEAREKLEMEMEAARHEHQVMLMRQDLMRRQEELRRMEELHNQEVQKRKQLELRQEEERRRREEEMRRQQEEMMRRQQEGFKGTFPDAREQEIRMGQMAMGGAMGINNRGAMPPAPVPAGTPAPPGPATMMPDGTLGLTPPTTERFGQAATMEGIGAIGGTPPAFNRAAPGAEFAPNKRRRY

In the case of NONO (from UniProt Q15233), the Kd is listed as 9.15 µM.
